Test results taken from PMC11039692, “SRY-Box transcription factor 9 triggers YAP nuclear entry via direct interaction in tumors” (Signal Transduction and Targeted Therapy, 2024).

Assays:
[1] = target: T1, His-tagged YAP purified from Escherichia coli (human, UniProt P46937 1-504); assay: MST; SOX9-HMG (aa 98–181) with YAP protein; which of the two was labelled is not told; 50 mM Tris-HCl pH 7.4, 150 mM NaCl, 0.05% Tween-20; room temperature; settings: both partners purified
T1 construct: YAP, recombinant; Labelled with RED-tris-NTA 2nd Generation dye where it was the labelled partner; also called YAP protein; source: Escherichia coli, purified

[2] = target: T1, His-tagged YAP purified from …; assay: MST; His-tagged YAP labelled with 25 nM RED-tris-NTA 2nd Generation dye, SOX9 peptide serially diluted; 50 mM Tris-HCl pH 7.4, 150 mM NaCl, 0.05% Tween-20; room temperature; 40% LED power, medium MST power; settings: both partners purified

T1 sequence (P46937 whole entry, the tested form may be a part): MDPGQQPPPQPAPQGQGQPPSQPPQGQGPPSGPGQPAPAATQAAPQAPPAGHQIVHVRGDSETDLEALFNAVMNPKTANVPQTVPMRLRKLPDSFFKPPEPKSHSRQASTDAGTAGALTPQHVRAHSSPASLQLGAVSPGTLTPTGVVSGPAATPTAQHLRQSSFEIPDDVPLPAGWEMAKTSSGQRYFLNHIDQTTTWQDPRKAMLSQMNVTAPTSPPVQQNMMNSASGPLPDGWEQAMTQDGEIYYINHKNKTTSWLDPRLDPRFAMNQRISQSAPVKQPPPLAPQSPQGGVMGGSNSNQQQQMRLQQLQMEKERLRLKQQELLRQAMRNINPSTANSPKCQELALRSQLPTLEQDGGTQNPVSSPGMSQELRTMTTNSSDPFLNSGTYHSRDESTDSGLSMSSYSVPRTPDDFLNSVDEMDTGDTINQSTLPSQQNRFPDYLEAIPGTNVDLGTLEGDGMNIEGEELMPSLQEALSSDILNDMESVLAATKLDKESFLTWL

B1: SOX9-HMG domain (aa 98–181) (domain or fragment)
chain: not shown
notes: SOX9 HMG domain, residues 98-181; The limits 98-181 are printed for the MST with YAP protein; source: Escherichia coli, purified
[1]
  Kd: 540 nM

## AFMVWAQAARRKLADQ (peptide, UniProt P48436 111-126, looked up) [peptide S-A1 (SOX9 amino acids 111–126)]
[2]
  Kd: 2200 nM

## RVNGSSKNKPHVKRPMNAFMVWAQAARRKLADQ (peptide, UniProt P48436 94-126, looked up) [nNLS-containing fragment of SOX9 (aa 94–126)]
[2]
  Kd: 1100 nM
